Reference: patent publication US20220298218A1 (ANTAG THERAPEUTICS, published 2022)
Where no end group is shown, it is not given here. [ ]: non-standard residue; d: D form. The star is where a group is joined. C16 diacid = O=C(O)CCCCCCCCCCCCCCC(=O)*; Nle = CCCC[C@H](N)C(=O)O; Aib = CC(C)(N)C(=O)O

T1: human GIP receptor (human, UniProt P48546 22-466)
T1 sequence (looked up): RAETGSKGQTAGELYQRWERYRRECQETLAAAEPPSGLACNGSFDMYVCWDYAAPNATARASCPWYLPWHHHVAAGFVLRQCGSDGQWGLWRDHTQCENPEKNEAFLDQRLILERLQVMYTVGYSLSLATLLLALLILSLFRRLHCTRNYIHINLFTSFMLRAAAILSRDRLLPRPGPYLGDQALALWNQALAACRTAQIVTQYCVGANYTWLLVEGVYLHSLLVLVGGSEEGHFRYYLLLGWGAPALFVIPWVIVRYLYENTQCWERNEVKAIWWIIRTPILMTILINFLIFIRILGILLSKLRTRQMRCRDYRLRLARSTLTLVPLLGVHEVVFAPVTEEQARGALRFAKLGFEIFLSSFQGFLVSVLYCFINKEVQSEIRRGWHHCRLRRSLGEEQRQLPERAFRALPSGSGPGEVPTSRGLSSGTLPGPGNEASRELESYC

B1: AT621 (peptide)
peptide: EGTFISDYSIAKDKIK(C16 diacid)QQDFVNWLLAQKPSSGAPPPS-OH
modifications: N-terminus assumed
SMILES: CC[C@H](C)[C@H](NC(=O)[C@H](CO)NC(=O)[C@H](Cc1ccc(O)cc1)NC(=O)[C@H](CC(=O)O)NC(=O)[C@H](CO)NC(=O)[C@@H](NC(=O)[C@H](Cc1ccccc1)NC(=O)[C@@H](NC(=O)CNC(=O)[C@@H](N)CCC(=O)O)[C@@H](C)O)[C@@H](C)CC)C(=O)N[C@@H](C)C(=O)N[C@@H](CCCCN)C(=O)N[C@@H](CC(=O)O)C(=O)N[C@@H](CCCCN)C(=O)N[C@H](C(=O)N[C@@H](CCCCNC(=O)CCCCCCCCCCCCCCC(=O)O)C(=O)N[C@@H](CCC(N)=O)C(=O)N[C@@H](CCC(N)=O)C(=O)N[C@@H](CC(=O)O)C(=O)N[C@@H](Cc1ccccc1)C(=O)N[C@H](C(=O)N[C@@H](CC(N)=O)C(=O)N[C@@H](Cc1c[nH]c2ccccc12)C(=O)N[C@@H](CC(C)C)C(=O)N[C@@H](CC(C)C)C(=O)N[C@@H](C)C(=O)N[C@@H](CCC(N)=O)C(=O)N[C@@H](CCCCN)C(=O)N1CCC[C@H]1C(=O)N[C@@H](CO)C(=O)N[C@@H](CO)C(=O)NCC(=O)N[C@@H](C)C(=O)N1CCC[C@H]1C(=O)N1CCC[C@H]1C(=O)N1CCC[C@H]1C(=O)N[C@@H](CO)C(=O)O)C(C)C)[C@@H](C)CC
B2: AT617 (peptide)
peptide: EGTFISDYSIAMDKIK(C16 diacid)QQDFVEWLLAQKPSSGAPPPS-OH
modifications: N-terminus assumed
SMILES: CC[C@H](C)[C@H](NC(=O)[C@H](CO)NC(=O)[C@H](Cc1ccc(O)cc1)NC(=O)[C@H](CC(=O)O)NC(=O)[C@H](CO)NC(=O)[C@@H](NC(=O)[C@H](Cc1ccccc1)NC(=O)[C@@H](NC(=O)CNC(=O)[C@@H](N)CCC(=O)O)[C@@H](C)O)[C@@H](C)CC)C(=O)N[C@@H](C)C(=O)N[C@@H](CCSC)C(=O)N[C@@H](CC(=O)O)C(=O)N[C@@H](CCCCN)C(=O)N[C@H](C(=O)N[C@@H](CCCCNC(=O)CCCCCCCCCCCCCCC(=O)O)C(=O)N[C@@H](CCC(N)=O)C(=O)N[C@@H](CCC(N)=O)C(=O)N[C@@H](CC(=O)O)C(=O)N[C@@H](Cc1ccccc1)C(=O)N[C@H](C(=O)N[C@@H](CCC(=O)O)C(=O)N[C@@H](Cc1c[nH]c2ccccc12)C(=O)N[C@@H](CC(C)C)C(=O)N[C@@H](CC(C)C)C(=O)N[C@@H](C)C(=O)N[C@@H](CCC(N)=O)C(=O)N[C@@H](CCCCN)C(=O)N1CCC[C@H]1C(=O)N[C@@H](CO)C(=O)N[C@@H](CO)C(=O)NCC(=O)N[C@@H](C)C(=O)N1CCC[C@H]1C(=O)N1CCC[C@H]1C(=O)N1CCC[C@H]1C(=O)N[C@@H](CO)C(=O)O)C(C)C)[C@@H](C)CC
B3: AT620 (peptide)
peptide: EGTFISDYSIAEDKIK(C16 diacid)QQDFVNWLLAQKPSSGAPPPS-OH
modifications: N-terminus assumed
SMILES: CC[C@H](C)[C@H](NC(=O)[C@H](CO)NC(=O)[C@H](Cc1ccc(O)cc1)NC(=O)[C@H](CC(=O)O)NC(=O)[C@H](CO)NC(=O)[C@@H](NC(=O)[C@H](Cc1ccccc1)NC(=O)[C@@H](NC(=O)CNC(=O)[C@@H](N)CCC(=O)O)[C@@H](C)O)[C@@H](C)CC)C(=O)N[C@@H](C)C(=O)N[C@@H](CCC(=O)O)C(=O)N[C@@H](CC(=O)O)C(=O)N[C@@H](CCCCN)C(=O)N[C@H](C(=O)N[C@@H](CCCCNC(=O)CCCCCCCCCCCCCCC(=O)O)C(=O)N[C@@H](CCC(N)=O)C(=O)N[C@@H](CCC(N)=O)C(=O)N[C@@H](CC(=O)O)C(=O)N[C@@H](Cc1ccccc1)C(=O)N[C@H](C(=O)N[C@@H](CC(N)=O)C(=O)N[C@@H](Cc1c[nH]c2ccccc12)C(=O)N[C@@H](CC(C)C)C(=O)N[C@@H](CC(C)C)C(=O)N[C@@H](C)C(=O)N[C@@H](CCC(N)=O)C(=O)N[C@@H](CCCCN)C(=O)N1CCC[C@H]1C(=O)N[C@@H](CO)C(=O)N[C@@H](CO)C(=O)NCC(=O)N[C@@H](C)C(=O)N1CCC[C@H]1C(=O)N1CCC[C@H]1C(=O)N1CCC[C@H]1C(=O)N[C@@H](CO)C(=O)O)C(C)C)[C@@H](C)CC
B4: AT615 (peptide)
peptide: EGTFISEYS[Aib]A[Nle]EKIK(C16 diacid)QQDFVEWLLAQKPSSGAPPPS-OH
modifications: N-terminus assumed
SMILES: CCCC[C@H](NC(=O)[C@H](C)NC(=O)C(C)(C)NC(=O)[C@H](CO)NC(=O)[C@H](Cc1ccc(O)cc1)NC(=O)[C@H](CCC(=O)O)NC(=O)[C@H](CO)NC(=O)[C@@H](NC(=O)[C@H](Cc1ccccc1)NC(=O)[C@@H](NC(=O)CNC(=O)[C@@H](N)CCC(=O)O)[C@@H](C)O)[C@@H](C)CC)C(=O)N[C@@H](CCC(=O)O)C(=O)N[C@@H](CCCCN)C(=O)N[C@H](C(=O)N[C@@H](CCCCNC(=O)CCCCCCCCCCCCCCC(=O)O)C(=O)N[C@@H](CCC(N)=O)C(=O)N[C@@H](CCC(N)=O)C(=O)N[C@@H](CC(=O)O)C(=O)N[C@@H](Cc1ccccc1)C(=O)N[C@H](C(=O)N[C@@H](CCC(=O)O)C(=O)N[C@@H](Cc1c[nH]c2ccccc12)C(=O)N[C@@H](CC(C)C)C(=O)N[C@@H](CC(C)C)C(=O)N[C@@H](C)C(=O)N[C@@H](CCC(N)=O)C(=O)N[C@@H](CCCCN)C(=O)N1CCC[C@H]1C(=O)N[C@@H](CO)C(=O)N[C@@H](CO)C(=O)NCC(=O)N[C@@H](C)C(=O)N1CCC[C@H]1C(=O)N1CCC[C@H]1C(=O)N1CCC[C@H]1C(=O)N[C@@H](CO)C(=O)O)C(C)C)[C@@H](C)CC
B5: AT618 (peptide)
peptide: EGTFISDYSIALDKIK(C16 diacid)QQDFVNWLLAQKPSSGAPPPS-OH
modifications: N-terminus assumed
SMILES: CC[C@H](C)[C@H](NC(=O)[C@H](CO)NC(=O)[C@H](Cc1ccc(O)cc1)NC(=O)[C@H](CC(=O)O)NC(=O)[C@H](CO)NC(=O)[C@@H](NC(=O)[C@H](Cc1ccccc1)NC(=O)[C@@H](NC(=O)CNC(=O)[C@@H](N)CCC(=O)O)[C@@H](C)O)[C@@H](C)CC)C(=O)N[C@@H](C)C(=O)N[C@@H](CC(C)C)C(=O)N[C@@H](CC(=O)O)C(=O)N[C@@H](CCCCN)C(=O)N[C@H](C(=O)N[C@@H](CCCCNC(=O)CCCCCCCCCCCCCCC(=O)O)C(=O)N[C@@H](CCC(N)=O)C(=O)N[C@@H](CCC(N)=O)C(=O)N[C@@H](CC(=O)O)C(=O)N[C@@H](Cc1ccccc1)C(=O)N[C@H](C(=O)N[C@@H](CC(N)=O)C(=O)N[C@@H](Cc1c[nH]c2ccccc12)C(=O)N[C@@H](CC(C)C)C(=O)N[C@@H](CC(C)C)C(=O)N[C@@H](C)C(=O)N[C@@H](CCC(N)=O)C(=O)N[C@@H](CCCCN)C(=O)N1CCC[C@H]1C(=O)N[C@@H](CO)C(=O)N[C@@H](CO)C(=O)NCC(=O)N[C@@H](C)C(=O)N1CCC[C@H]1C(=O)N1CCC[C@H]1C(=O)N1CCC[C@H]1C(=O)N[C@@H](CO)C(=O)O)C(C)C)[C@@H](C)CC
B6: AT616 (peptide)
peptide: EGTFISEYSI[Aib]MEKIK(C16 diacid)QQDFVEWLLAQKPSSGAPPPS-OH
modifications: N-terminus assumed
SMILES: CC[C@H](C)[C@H](NC(=O)[C@H](CCCCN)NC(=O)[C@H](CCC(=O)O)NC(=O)[C@H](CCSC)NC(=O)C(C)(C)NC(=O)[C@@H](NC(=O)[C@H](CO)NC(=O)[C@H](Cc1ccc(O)cc1)NC(=O)[C@H](CCC(=O)O)NC(=O)[C@H](CO)NC(=O)[C@@H](NC(=O)[C@H](Cc1ccccc1)NC(=O)[C@@H](NC(=O)CNC(=O)[C@@H](N)CCC(=O)O)[C@@H](C)O)[C@@H](C)CC)[C@@H](C)CC)C(=O)N[C@@H](CCCCNC(=O)CCCCCCCCCCCCCCC(=O)O)C(=O)N[C@@H](CCC(N)=O)C(=O)N[C@@H](CCC(N)=O)C(=O)N[C@@H](CC(=O)O)C(=O)N[C@@H](Cc1ccccc1)C(=O)N[C@H](C(=O)N[C@@H](CCC(=O)O)C(=O)N[C@@H](Cc1c[nH]c2ccccc12)C(=O)N[C@@H](CC(C)C)C(=O)N[C@@H](CC(C)C)C(=O)N[C@@H](C)C(=O)N[C@@H](CCC(N)=O)C(=O)N[C@@H](CCCCN)C(=O)N1CCC[C@H]1C(=O)N[C@@H](CO)C(=O)N[C@@H](CO)C(=O)NCC(=O)N[C@@H](C)C(=O)N1CCC[C@H]1C(=O)N1CCC[C@H]1C(=O)N1CCC[C@H]1C(=O)N[C@@H](CO)C(=O)O)C(C)C

Molecular target: T1, human GIP receptor
Assay: cell-based or functional assay

Row | Binder | cAMP agonism % Emax [%] | cAMP antagonism [nM] | cAMP antagonism % inhib [%] | cAMP antagonism pIC50
1 | B1 | 0 | 1.36 | 93 | 8.9
2 | B2 | 0 | 0.794 | 91 | 9.1
3 | B3 | 0 | 31.6 | 83 | 7.5
4 | B4 | 0 | 7.94 | 97 | 8.1
5 | B5 | 0 | 3.98 | 82 | 8.4
6 | B6 | 0 | 0.473 | 100 | 9.3
7 | EGTFISDYSIALDKIKQQDFVNWLLAQKPSSGAPPPS (Nle at 14; K18: C16-diacid; C-term COOH) [AT619] | 0 | 2.19 | 87 | 8.7
